Data taken from patent publication US10280205B2, “Method for treating cancer with an activated T lymphocyte that selectively recognizes a cancer cell consisting of specific peptide” (immatics biotechnologies GmbH, priority 2015, dated 2019).

Target: HLA-A*02:01 (Homo sapiens, UniProt P04439, D140Y/D185E/D98H/E176V/E277Q/G131W/G231S/I119V/I121R/I166T/I218V/L300P/L318F/N151K/N90K/P208A/P217A/Q86G/Q94H/R138H/R169H/T345S)
Test: MHC binding assay: UV-ligand exchange with beta2m ELISA (exchange yield)
Settings: binding to HLA-A*02:01, β2m ELISA
From the text: Candidate peptides for T cell based therapies according to the present invention were further tested for their MHC binding capacity (affinity). The individual peptide-MHC complexes were produced by UV-ligand exchange, where a UV-sensitive peptide is cleaved upon UV-irradiation, and exchanged with the peptide of interest as analyzed. Only peptide candidates that can effectively bind and stabilize the peptide-receptive MHC molecules prevent dissociation of the MHC complexes. To determine the yield of the exchange reaction, an ELISA was performed based on the detection of the light chain (β2m) of stabilized MHC complexes. The assay was performed as generally described in Rodenko et al. (Rodenko et al., 2006).
96 well MAXISorp plates (NUNC) were coated over night with 2 ug/ml streptavidin in PBS at room temperature, washed 4× and blocked for 1 h at 37° C. in 2% BSA containing blocking buffer. […] Peptide-MHC monomers of the UV-exchange reaction were diluted 100 fold in blocking buffer. Samples were incubated for 1h at 37° C., washed four times, incubated with 2 ug/ml HRP conjugated anti-β2m for 1h at 37° C., washed again and detected with TMB solution that is stopped with […]. Absorption was measured at 450 nm. Candidate peptides that show a high exchange yield (preferably higher than 50%, most preferred higher than 75%) are generally preferred for a generation and production of antibodies or fragments thereof, and/or T cell receptors or fragments thereof, as they show sufficient avidity to the MHC molecules and prevent dissociation of the MHC complexes.

209 (KLIESKHEV; listed as Homo sapiens) [compound 209]
Peptide exchange (MHC class I binding score, peptide exchange yield): “++” (≥20% = ++)

257 (SIFSAFLSV; listed as Homo sapiens) [compound 257]
Peptide exchange (MHC class I binding score, peptide exchange yield): “+++” (≥50 = +++)

167 (KVLEVTEEFGV; listed as Homo sapiens) [compound 167]
Peptide exchange (MHC class I binding score, peptide exchange yield): “+++” (≥50 = +++)

222 (NLIENVQRL; listed as Homo sapiens) [compound 222]
Peptide exchange (MHC class I binding score, peptide exchange yield): “++” (≥20% = ++)

514 (ILVDWLVQV; listed as Homo sapiens) [compound 514]
Peptide exchange (MHC class I binding score, peptide exchange yield): “+++” (≥50 = +++)

263 (LLVSNLDFGV; listed as Homo sapiens) [compound 263]
Peptide exchange (MHC class I binding score, peptide exchange yield): “+++” (≥50 = +++)

341 (SQIALNEKLVNL; listed as Homo sapiens) [compound 341]
Peptide exchange (MHC class I binding score, peptide exchange yield): “+++” (≥50 = +++)

196 (YLYSVEIKL; listed as Homo sapiens) [compound 196]
Peptide exchange (MHC class I binding score, peptide exchange yield): “++++” (≥75% = ++++)

183 (FGLDLVTEL; listed as Homo sapiens) [compound 183]
Peptide exchange (MHC class I binding score, peptide exchange yield): “+++” (≥50 = +++)

216 (NLWEDPYYL; listed as Homo sapiens) [compound 216]
Peptide exchange (MHC class I binding score, peptide exchange yield): “+++” (≥50 = +++)

485 (NVPDSFNEV; listed as Homo sapiens) [compound 485]
Peptide exchange (MHC class I binding score, peptide exchange yield): “+++” (≥50 = +++)

554 (LLMPSSEDLLL; listed as Homo sapiens) [compound 554]
Peptide exchange (MHC class I binding score, peptide exchange yield): “+++” (≥50 = +++)

606 (ALWETEVYI; listed as Homo sapiens) [compound 606]
Peptide exchange (MHC class I binding score, peptide exchange yield): “+++” (≥50 = +++)

442 (GLLGGGGVLGV; listed as Homo sapiens) [compound 442]
Peptide exchange (MHC class I binding score, peptide exchange yield): “+++” (≥50 = +++)

63 (YLLPSGGSVTL; listed as Homo sapiens) [compound 63]
Peptide exchange (MHC class I binding score, peptide exchange yield): “++” (≥20% = ++)

428 (KLGHTDILVGV; listed as Homo sapiens) [compound 428]
Peptide exchange (MHC class I binding score, peptide exchange yield): “++” (≥20% = ++)

195 (GLFADLLPRL; listed as Homo sapiens) [compound 195]
Peptide exchange (MHC class I binding score, peptide exchange yield): “+++” (≥50 = +++)

447 (QLVPALAKV; listed as Homo sapiens) [compound 447]
Peptide exchange (MHC class I binding score, peptide exchange yield): “++” (≥20% = ++)

553 (SLLNQDLHWSL; listed as Homo sapiens) [compound 553]
Peptide exchange (MHC class I binding score, peptide exchange yield): “++++” (≥75% = ++++)

385 (SLLEQGLVEA; listed as Homo sapiens) [compound 385]
Peptide exchange (MHC class I binding score, peptide exchange yield): “++” (≥20% = ++)

180 (FQIDPHSGLVTV; listed as Homo sapiens) [compound 180]
Peptide exchange (MHC class I binding score, peptide exchange yield): “++” (≥20% = ++)

506 (KLLGKVETA; listed as Homo sapiens) [compound 506]
Peptide exchange (MHC class I binding score, peptide exchange yield): “+++” (≥50 = +++)

192 (KMLDGASFTL; listed as Homo sapiens) [compound 192]
Peptide exchange (MHC class I binding score, peptide exchange yield): “+++” (≥50 = +++)

145 (FLATSGTLAGI; listed as Homo sapiens) [compound 145]
Peptide exchange (MHC class I binding score, peptide exchange yield): “++” (≥20% = ++)

77 (ILVEADGAWVV; listed as Homo sapiens) [compound 77]
Peptide exchange (MHC class I binding score, peptide exchange yield): “++++” (≥75% = ++++)

278 (QLLDVVLTI; listed as Homo sapiens) [compound 278]
Peptide exchange (MHC class I binding score, peptide exchange yield): “++” (≥20% = ++)

266 (KITDTLIHL; listed as Homo sapiens) [compound 266]
Peptide exchange (MHC class I binding score, peptide exchange yield): “+++” (≥50 = +++)

617 (ALMYESEKVGV; listed as Homo sapiens) [compound 617]
Peptide exchange (MHC class I binding score, peptide exchange yield): “+++” (≥50 = +++)

391 (YVYPQRLNFV; listed as Homo sapiens) [compound 391]
Peptide exchange (MHC class I binding score, peptide exchange yield): “+++” (≥50 = +++)

91 (IMQDFPAEIFL; listed as Homo sapiens) [compound 91]
Peptide exchange (MHC class I binding score, peptide exchange yield): “++++” (≥75% = ++++)

335 (YSLSSVVTV; listed as Homo sapiens) [compound 335]
Peptide exchange (MHC class I binding score, peptide exchange yield): “+++” (≥50 = +++)

234 (ALMEDTGRQML; listed as Homo sapiens) [compound 234]
Peptide exchange (MHC class I binding score, peptide exchange yield): “++” (≥20% = ++)

322 (TLMTSLPAL; listed as Homo sapiens) [compound 322]
Peptide exchange (MHC class I binding score, peptide exchange yield): “+++” (≥50 = +++)

177 (YLLPEEYTSTL; listed as Homo sapiens) [compound 177]
Peptide exchange (MHC class I binding score, peptide exchange yield): “++++” (≥75% = ++++)

214 (FLLDLDPLLL; listed as Homo sapiens) [compound 214]
Peptide exchange (MHC class I binding score, peptide exchange yield): “+++” (≥50 = +++)

102 (YLFESEGLVL; listed as Homo sapiens) [compound 102]
Peptide exchange (MHC class I binding score, peptide exchange yield): “+++” (≥50 = +++)

373 (SLLEDKGLAEV; listed as Homo sapiens) [compound 373]
Peptide exchange (MHC class I binding score, peptide exchange yield): “++” (≥20% = ++)

127 (KIGDEPPKV; listed as Homo sapiens) [compound 127]
Peptide exchange (MHC class I binding score, peptide exchange yield): “++” (≥20% = ++)

484 (SLIEKVTQL; listed as Homo sapiens) [compound 484]
Peptide exchange (MHC class I binding score, peptide exchange yield): “+++” (≥50 = +++)

267 (ALQDFLLSV; listed as Homo sapiens) [compound 267]
Peptide exchange (MHC class I binding score, peptide exchange yield): “+++” (≥50 = +++)

106 (LLYDAVHIVSV; listed as Homo sapiens) [compound 106]
Peptide exchange (MHC class I binding score, peptide exchange yield): “+++” (≥50 = +++)

584 (ALAEVAAMENV; listed as Homo sapiens) [compound 584]
Peptide exchange (MHC class I binding score, peptide exchange yield): “+++” (≥50 = +++)

359 (YLLPESVDL; listed as Homo sapiens) [compound 359]
Peptide exchange (MHC class I binding score, peptide exchange yield): “+++” (≥50 = +++)

172 (VLYSYTIITV; listed as Homo sapiens) [compound 172]
Peptide exchange (MHC class I binding score, peptide exchange yield): “++” (≥20% = ++)

544 (LLWDVPAPSL; listed as Homo sapiens) [compound 544]
Peptide exchange (MHC class I binding score, peptide exchange yield): “+++” (≥50 = +++)

225 (SLLKVLPAL; listed as Homo sapiens) [compound 225]
Peptide exchange (MHC class I binding score, peptide exchange yield): “+++” (≥50 = +++)

438 (KLLPLAGLYL; listed as Homo sapiens) [compound 438]
Peptide exchange (MHC class I binding score, peptide exchange yield): “++++” (≥75% = ++++)

59 (IMEDIILTL; listed as Homo sapiens) [compound 59]
Peptide exchange (MHC class I binding score, peptide exchange yield): “+++” (≥50 = +++)

237 (ALLEASGTLLL; listed as Homo sapiens) [compound 237]
Peptide exchange (MHC class I binding score, peptide exchange yield): “++++” (≥75% = ++++)

378 (ALGYFVPYV; listed as Homo sapiens) [compound 378]
Peptide exchange (MHC class I binding score, peptide exchange yield): “+++” (≥50 = +++)

18 (YLVAKLVEV; listed as Homo sapiens) [compound 18]
Peptide exchange (MHC class I binding score, peptide exchange yield): “++” (≥20% = ++)

595 (VLLSIYPRV; listed as Homo sapiens) [compound 595]
Peptide exchange (MHC class I binding score, peptide exchange yield): “+++” (≥50 = +++)

187 (RQISIRGIVGV; listed as Homo sapiens) [compound 187]
Peptide exchange (MHC class I binding score, peptide exchange yield): “+++” (≥50 = +++)

218 (SALEELVNV; listed as Homo sapiens) [compound 218]
Peptide exchange (MHC class I binding score, peptide exchange yield): “++” (≥20% = ++)

494 (ALQPEPIKV; listed as Homo sapiens) [compound 494]
Peptide exchange (MHC class I binding score, peptide exchange yield): “++” (≥20% = ++)

594 (IMLKGDNITL; listed as Homo sapiens) [compound 594]
Peptide exchange (MHC class I binding score, peptide exchange yield): “+++” (≥50 = +++)
